# Measured values: publication PMC11366018
# Biological target: S2A4 (human)
# Test: BLI
# Chain of S2A4 (human) (heavy, as listed by the source, chain 1 of 2): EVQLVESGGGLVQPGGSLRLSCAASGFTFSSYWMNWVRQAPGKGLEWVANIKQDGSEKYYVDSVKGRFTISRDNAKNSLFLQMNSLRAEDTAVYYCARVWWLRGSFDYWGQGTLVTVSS
# Chain of S2A4 (human) (light, as listed by the source, chain 2 of 2): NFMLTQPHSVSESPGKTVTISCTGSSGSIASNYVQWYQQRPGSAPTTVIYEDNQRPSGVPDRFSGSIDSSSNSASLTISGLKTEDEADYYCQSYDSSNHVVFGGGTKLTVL
row,Substance,Kd
1,Omicron-(P373S+F375S) RBD (from UniProt P0DTC2 319-541) (domain or fragment),38.6 nM
2,Omicron-(L371S+P373S) RBD (from UniProt P0DTC2 319-541) (domain or fragment),89.4 nM
3,Omicron-(L371S+F375S) RBD (from UniProt P0DTC2 319-541) (domain or fragment),75.2 nM
